According to patent US20080220446A1, “Method for Detecting and/or Removing Protein and/or Peptide Comprising a Cross-Beta Structure From an Aqueous Solution Comprising a Protein” (priority 2005, published 2008):

Biological target: T1, LRP cl-IV (Homo sapiens, UniProt Q07954)
T1 construct: Cluster IV of the low-density lipoprotein (LDL) receptor-related protein (LRP cl-IV); made in house; host or cells: HEK293E/S
Assay: ELISA, LRP cluster IV binding to misfolded proteins
Details: coated at 5 μg/ml
Method: Binding of LRP cl-IV to misfolded protein was determined using an enzyme linked immuno sorbent assay (ELISA) set-up. For this purpose 50 μl of a 5 μg/ml solution of BSA, BSA-AGE, Hb or Hb-AGE or coat buffer (for negative control) was coated for 1 h with motion. Proteins were diluted in coat buffer (100 mM NaHCO3 pH 9.6). The BSA and Hb controls were prepared freshly by dissolving proteins at 1 mg/ml in PBS by rolling for 10 minutes on a roller bank at room temperature, 10 minutes incubation at 37° C. followed by again 10 minutes incubation at the roller bank. Coat controls were performed with anti-glycated protein antibody 4B5, anti-albumin antibody or anti Hb antibody. After coating the plates were washed twice with PBS/0.1% Tween-20 (v/v) and blocked with 300 μl/well blocking reagent (Roche Diagnostics, Almere, The Netherlands) for 1 h at room temperature with motion. […] After five washes with wash buffer binding of antibody was assessed with a secondary antibody. […] After 5 washes with wash buffer, binding of anti-FLAG antibody and secondary antibodies was assessed with 100 μl/well TMB substrate (ready to use from Tebu Bio). […] After ˜2 minutes absorbance was read at 450 nm.

T1 sequence (Q07954 3332-3778): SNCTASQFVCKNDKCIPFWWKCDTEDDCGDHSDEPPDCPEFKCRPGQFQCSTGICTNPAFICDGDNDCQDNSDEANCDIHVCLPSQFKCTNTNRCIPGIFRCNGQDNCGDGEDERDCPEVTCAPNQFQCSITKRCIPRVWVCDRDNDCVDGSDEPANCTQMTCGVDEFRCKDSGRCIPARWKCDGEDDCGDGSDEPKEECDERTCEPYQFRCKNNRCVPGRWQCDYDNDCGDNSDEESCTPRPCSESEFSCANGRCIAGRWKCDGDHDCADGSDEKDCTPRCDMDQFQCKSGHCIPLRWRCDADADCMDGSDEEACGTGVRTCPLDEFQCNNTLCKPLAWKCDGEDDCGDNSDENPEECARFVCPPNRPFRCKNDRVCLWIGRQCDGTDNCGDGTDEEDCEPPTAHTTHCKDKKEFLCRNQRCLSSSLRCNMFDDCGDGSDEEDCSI

albumin-AGE: advanced glycation end-product modified bovine serum albumin
binding of LRP cl-IV: binds specifically
